Test results published in US20130330343A1 (AbbVie / Abbott, published 2013).

T1: human RGMc (human, UniProt Q6ZVN8 36-400, limits assumed)
T1 construct: also called hRGMc
T1 sequence: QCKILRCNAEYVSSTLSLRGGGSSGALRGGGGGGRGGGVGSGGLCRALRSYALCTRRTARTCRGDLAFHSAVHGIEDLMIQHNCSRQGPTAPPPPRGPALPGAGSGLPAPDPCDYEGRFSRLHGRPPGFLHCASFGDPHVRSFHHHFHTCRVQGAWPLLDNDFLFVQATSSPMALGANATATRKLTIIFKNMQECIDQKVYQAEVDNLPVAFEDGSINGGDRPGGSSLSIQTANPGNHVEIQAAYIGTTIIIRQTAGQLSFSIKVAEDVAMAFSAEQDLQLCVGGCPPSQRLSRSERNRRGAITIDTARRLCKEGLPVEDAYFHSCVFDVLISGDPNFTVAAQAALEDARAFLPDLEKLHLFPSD

T2: human RGMa (human, UniProt Q96B86 48-422, limits assumed)
T2 construct: also called hRGMa; h RGMa
T2 sequence (looked up): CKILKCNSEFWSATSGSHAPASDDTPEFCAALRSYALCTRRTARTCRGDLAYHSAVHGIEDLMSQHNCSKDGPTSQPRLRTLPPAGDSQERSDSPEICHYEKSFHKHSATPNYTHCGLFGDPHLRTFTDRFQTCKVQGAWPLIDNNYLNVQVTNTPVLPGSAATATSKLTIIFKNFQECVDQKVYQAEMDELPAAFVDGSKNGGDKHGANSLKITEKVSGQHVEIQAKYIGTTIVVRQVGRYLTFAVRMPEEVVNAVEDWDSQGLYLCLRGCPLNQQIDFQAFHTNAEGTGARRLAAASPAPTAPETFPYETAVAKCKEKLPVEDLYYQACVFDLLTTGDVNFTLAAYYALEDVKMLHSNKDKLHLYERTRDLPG

T3: Rat RGMa (rat) (UniProt D4A188)
T3 sequence: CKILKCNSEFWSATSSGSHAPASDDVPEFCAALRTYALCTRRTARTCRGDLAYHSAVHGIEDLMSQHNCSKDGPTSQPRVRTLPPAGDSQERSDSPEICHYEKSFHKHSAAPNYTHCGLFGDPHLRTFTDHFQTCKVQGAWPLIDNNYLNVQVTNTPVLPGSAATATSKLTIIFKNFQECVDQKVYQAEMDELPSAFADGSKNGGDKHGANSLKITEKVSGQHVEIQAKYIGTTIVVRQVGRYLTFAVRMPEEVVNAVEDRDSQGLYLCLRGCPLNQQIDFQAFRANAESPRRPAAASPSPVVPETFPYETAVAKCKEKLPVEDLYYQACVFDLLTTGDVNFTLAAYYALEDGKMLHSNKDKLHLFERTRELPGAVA

T4: hRGMc expressed in 293HEK cells (human, UniProt Q6ZVN8 36-400)
T4 sequence: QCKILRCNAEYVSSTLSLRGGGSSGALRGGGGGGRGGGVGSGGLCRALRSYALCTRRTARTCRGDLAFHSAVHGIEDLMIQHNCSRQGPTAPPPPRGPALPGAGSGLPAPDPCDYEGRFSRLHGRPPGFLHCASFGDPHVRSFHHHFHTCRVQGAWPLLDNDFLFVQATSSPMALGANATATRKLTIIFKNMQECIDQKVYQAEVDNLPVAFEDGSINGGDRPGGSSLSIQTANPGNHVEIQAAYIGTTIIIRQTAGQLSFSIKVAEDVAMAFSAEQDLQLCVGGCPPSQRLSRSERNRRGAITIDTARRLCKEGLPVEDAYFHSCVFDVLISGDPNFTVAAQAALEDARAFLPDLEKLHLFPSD

T5: hRGMa-His (human, UniProt Q96B86 48-422, limits assumed)
T5 construct: not shown: His tag
T5 sequence (looked up): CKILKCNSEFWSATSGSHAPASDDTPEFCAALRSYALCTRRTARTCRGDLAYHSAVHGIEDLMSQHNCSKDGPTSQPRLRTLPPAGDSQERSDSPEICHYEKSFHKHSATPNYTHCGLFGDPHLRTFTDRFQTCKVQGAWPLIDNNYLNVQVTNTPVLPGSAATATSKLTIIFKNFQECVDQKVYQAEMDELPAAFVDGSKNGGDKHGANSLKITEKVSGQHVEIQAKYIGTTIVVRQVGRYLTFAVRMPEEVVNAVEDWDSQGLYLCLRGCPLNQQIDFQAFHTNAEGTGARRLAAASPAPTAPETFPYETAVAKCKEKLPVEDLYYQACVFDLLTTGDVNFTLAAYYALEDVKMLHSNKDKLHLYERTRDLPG

T6: R&D hRGMc-His (human, UniProt Q6ZVN8 36-400)
T6 construct: Bought (R&D); not shown: His tag
T6 sequence: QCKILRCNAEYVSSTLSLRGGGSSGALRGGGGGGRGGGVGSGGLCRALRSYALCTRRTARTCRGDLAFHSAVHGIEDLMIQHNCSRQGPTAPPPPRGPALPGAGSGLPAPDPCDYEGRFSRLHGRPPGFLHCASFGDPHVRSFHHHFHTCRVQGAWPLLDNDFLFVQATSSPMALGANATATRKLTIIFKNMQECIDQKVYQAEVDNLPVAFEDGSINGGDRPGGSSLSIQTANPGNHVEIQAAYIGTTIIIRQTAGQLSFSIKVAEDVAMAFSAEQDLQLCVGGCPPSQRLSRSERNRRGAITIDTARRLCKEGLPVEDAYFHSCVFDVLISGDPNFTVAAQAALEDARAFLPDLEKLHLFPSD

T7: Rat RGMa-His (rat) (UniProt D4A188)
T7 sequence: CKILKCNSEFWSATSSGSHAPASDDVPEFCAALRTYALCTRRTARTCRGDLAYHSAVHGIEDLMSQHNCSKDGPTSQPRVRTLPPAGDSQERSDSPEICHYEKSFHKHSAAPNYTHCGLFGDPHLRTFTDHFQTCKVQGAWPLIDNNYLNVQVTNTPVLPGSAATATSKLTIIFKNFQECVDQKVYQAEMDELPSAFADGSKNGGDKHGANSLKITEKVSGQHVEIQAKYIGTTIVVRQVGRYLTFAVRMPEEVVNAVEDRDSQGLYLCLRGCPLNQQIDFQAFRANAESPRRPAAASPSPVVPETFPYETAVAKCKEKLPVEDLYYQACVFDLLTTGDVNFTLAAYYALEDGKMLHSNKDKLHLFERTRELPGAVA


Assays:
human RGMc = molecular target: T1, human RGMc; assay: BIAcore; Ab captured via anti-hIgG Fc on CM5 chip, antigen injected; 1:1 Langmuir fit
Procedure: (§1) The potency data correlates with the affinity data (see Table 5). The affinity of h5F9.23 affinity matured Abs towards human RGMa, rat RGMa, and human RGMc were determined by BIAcore analysis (Table 5). Testing Abs were captured to the surface of a CM5 chip via anti-hIgG Fc Ab, and serially diluted antigens were injected. Association and dissociation rates were monitored for 5 and 10 min respectively. Sensorgrams were fitted by global analysis using the BIAevaluation 4.0.1 software for a 1:1 Langmuir binding model. The equilibrium dissociation constants (KD) were calculated from kinetic rate constants (off rate kd and on rate ka): KD=kd/ka.

human RGMa = molecular target: T2, human RGMa; assay: as above
Procedure: as §1

Rat RGMa (rat) = molecular target: T3, Rat RGMa (rat); assay: as above
[1] = molecular target: T4, hRGMc expressed in 293HEK cells; assay: cell-based or functional assay
hRGMa-His = molecular target: T5, hRGMa-His; assay: Affinity KD (nM); (BIAcore per Example 4)
Procedure: as §1

R&D hRGMc-His = molecular target: T6, R&D hRGMc-His; assay: Affinity KD (nM); (BIAcore per Example 4)
Procedure: as §1

Rat RGMa-His (rat) = molecular target: T7, Rat RGMa-His (rat); assay: Affinity KD (nM); (BIAcore per Example 4)
[2] = molecular target: T4, hRGMc expressed in 293HEK cells; assay: cell-based or functional assay; remark: listed apart in the source

Binder	Kd (human RGMc)	koff (human RGMc)	kon (human RGMc)	Kd (human RGMa)	koff (human RGMa)	kon (human RGMa)	Kd (Rat RGMa (rat))	koff (Rat RGMa (rat))	kon (Rat RGMa (rat))	IC50 (inhibition of RGMc-mediated BRE-luciferase activity, RLU, in 293HEK cells transfected with hRGMc) [1]	Kd (hRGMa-His)	Kd (R&D hRGMc-His)	Kd (Rat RGMa-His (rat))	IC50, RGMc-mediated BMP reporter (BRE-luc) assay in 293HEK cells [2]
RGMA-h5F9Vh7a/pJP291 hIgG1/K mut (antibody, V domains shown, Tested as IgG; also called h5F9.AM4; H5F9AM.4) VH: EVQLVESGGGLVQPGGSLRLSCAASGFTFSNYGMNWIRQAPGKGLEWIGMIYYDSSEKHYADSVKGRFTISRDNSKNTLYLQMNSLRAEDTAVYYCAKGTTPDYWGQGTMVTVSS VL: DVVLTQSPLSLPVTLGQPASISCRSSQSLESSDGDTFLEWFQQRPGQSPRLLIYDVSTRFSGVPDRFSGSGSGTDFTLKISRVEAEDVGVYYCFQVTHDPVTFGQGTKLEIK	0.13 nM	0.00104 s⁻¹	7.85e+06 M⁻¹ s⁻¹	0.015 nM	2.2e-05 s⁻¹	1.4e+06 M⁻¹ s⁻¹	< 0.00094 nM	< 1e-06 s⁻¹	1.1e+06 M⁻¹ s⁻¹	0.31 nM	0.015 nM	0.12 nM	< 0.00094 nM	
humanized antibody 5F9.23 (antibody, V domains shown, also called h5F9.23; H5F9.23) VH: EVQLVESGGGLVQPGGSLRLSCAASGFTFSNYGMNWIRQAPGKGLEWIGMIYYDSSEKHYADSVKGRFTISRDNSKNTLYLQMNSLRAEDTAVYYCAKGTTPDYWGQGTMVTVSS VL: DVVLTQSPLSLPVTLGQPASISCRSSQSLEYSDGYTFLEWFQQRPGQSPRLLIYEVSNRFSGVPDRFSGSGSGTDFTLKISRVEAEDVGVYYCFQATHDPLTFGQGTKLEIKR	29 nM		830000 M⁻¹ s⁻¹	3.7 nM	0.0022 s⁻¹	600000 M⁻¹ s⁻¹	2.1 nM	0.0017 s⁻¹	830000 M⁻¹ s⁻¹	17.1 nM				17 nM
RGMA-h5F9pJP302/pJP303 hIgG1/K mut (antibody, V domains shown, Tested as IgG; also called h5F9.AM11; H5F9AM.11) VH: EVQLVESGGGLVQPGGSLRLSCAASGFTFSNYGMNWVRQAPGKGLEWVSMIYYDSSEKHYADSVKGRFTISRDNSKNTLYLQMNSLRAEDTAVYYCAKGTTPDYWGQGTMVTVSS VL: DVVLTQSPLSLPVTLGQPASISCRSSQSLEDSDGGTFLEWFQQRPGQSPRLLIYDVSSRFSGVPDRFSGSGSGTDFTLKISRVEAEDVGVYYCFQATHDPLSFGQGTKLEIK	0.285 nM	0.0014 s⁻¹	5.05e+06 M⁻¹ s⁻¹	0.11 nM	9.9e-05 s⁻¹	930000 M⁻¹ s⁻¹	0.074 nM	5.2e-05 s⁻¹	700000 M⁻¹ s⁻¹	0.51 nM	0.11 nM	0.25 nM	0.074 nM	
RGMA-h5F9pJP297/pJP299 hIgG1/K mut (antibody, V domains shown, Tested as IgG; also called h5F9.AM9; H5F9AM.9) VH: EVQLVESGGGVVQPGRSLRLSCAASGFTFSNYGMNWVRQAPGKGLEWVAMIYYDSSEKHYADSVKGRFTISRDNSKNTLYLQMNSLRAEDTAVYYCARGTTPDYWGQGTMVTVSS VL: DVVLTQSPLSLPVTLGQPASISCRSSQSLADSDGDTFLHWFQQRPGQSPRLLIYAVSHRFSGVPDRFSGSGSGTDFTLKISRVEAEDVGVYYCFQATHDPVTFGQGTKLEIK	0.71 nM	0.0107 s⁻¹	1.55e+07 M⁻¹ s⁻¹	0.47 nM	0.0004 s⁻¹	860000 M⁻¹ s⁻¹	0.31 nM	0.00021 s⁻¹	680000 M⁻¹ s⁻¹	1.36 nM	0.47 nM	0.69 nM	0.31 nM	
RGMA-h5F9pJP297/pJP298 hIgG1/K mut (antibody, V domains shown, Tested as IgG; also called h5F9.AM8; H5F9AM.8) VH: EVQLVESGGGLVQPGGSLRLSCAASGFTFSNYGMNWIRQAPGKGLEWIGMIYYDSSEKHYADSVKGRFTISRDNSKNTLYLQMNSLRAEDTAVYYCAKGTTPDYWGQGTMVTVSS VL: DVVLTQSPLSLPVTLGQPASISCRSSQSLEESDGYTFLHWFQQRPGQSPRLLIYEVSTRFSGVPDRFSGSGSGTDFTLKISRVEAEDVGVYYCFQATHDPLTFGQGTKLEIK	0.105 nM	0.00039 s⁻¹	3.95e+06 M⁻¹ s⁻¹	0.031 nM	2.7e-05 s⁻¹	870000 M⁻¹ s⁻¹	< 0.0015 nM	< 1e-06 s⁻¹	660000 M⁻¹ s⁻¹	0.38 nM	0.031 nM	0.08 nM	< 0.0015 nM	
